Measured values reported in patent US20210002376A1.
Where two headings read alike, the source gives them in different places.

Tests used:
[1] = target: HER3-Fc fusion protein (UniProt P21860); test: ELISA, coated HER3-Fc, anti-human Fab-HRP
[2] = target: HER3-Fc fusion protein (UniProt P21860); test: ELISA, coated HER3-Fc, anti-human Fab-HRP; remark: listed apart in the source
[3] = target: HER3-His (UniProt P21860); test: ELISA, coated His-tagged HER3 ECD, anti-human Fc-HRP

B1: 3-43-IgG (antibody, from a related filing, V domains shown)
VH: QVQLQQSGPGLVKPSQTLSLTCAISGDSVSSNRAAWNWIRQSPSRGLEWLGRTYYRSKWYNDYAQSLKSRITINPDTPKNQFSLQLNSVTPEDTAVYYCARDGQLGLDALDIWGQGTMVTVSS
VL: QAGLTQPPAVSVAPGQTASITCGRDNIGSRSVHWYQQKPGQAPVLVVYDDSDRPAGIPERFSGSNYENTATLTISRVEAGDEADYYCQVWGITSDHVVFGGGTKLTVLC
- EC50 [1]: 0.2 nM
- EC50 [2]: 0.21 nM
- EC50 [3]: 0.23 nM
